Experimental data from PMC9330781, “Isolated Variable Domains of an Antibody Can Assemble on Blood Coagulation Factor VIII into a Functional Fv-like Complex” (International Journal of Molecular Sciences, 2022).

B1: Recombinant B-domain deleted FVIII (BDD) (natural protein, human, UniProt P00451 20-2351, looked up)
chain 1: ATRRYYLGAVELSWDYMQSDLGELPVDARFPPRVPKSFPFNTSVVYKKTLFVEFTDHLFNIAKPRPPWMGLLGPTIQAEVYDTVVITLKNMASHPVSLHAVGVSYWKASEGAEYDDQTSQREKEDDKVFPGGSHTYVWQVLKENGPMASDPLCLTYSYLSHVDLVKDLNSGLIGALLVCREGSLAKEKTQTLHKFILLFAVFDEGKSWHSETKNSLMQDRDAASARAWPKMHTVNGYVNRSLPGLIGCHRKSVYWHVIGMGTTPEVHSIFLEGHTFLVRNHRQASLEISPITFLTAQTLLMDLGQFLLFCHISSHQHDGMEAYVKVDSCPEEPQLRMKNNEEAEDYDDDLTDSEMDVVRFDDDNSPSFIQIRSVAKKHPKTWVHYIAAEEEDWDYAPLVLAPDDRSYKSQYLNNGPQRIGRKYKKVRFMAYTDETFKTREAIQHESGILGPLLYGEVGDTLLIIFKNQASRPYNIYPHGITDVRPLYSRRLPKGVKHLKDFPILPGEIFKYKWTVTVEDGPTKSDPRCLTRYYSSFVNMERDLASGLIGPLLICYKESVDQRGNQIMSDKRNVILFSVFDENRSWYLTENIQRFLPNPAGVQLEDPEFQASNIMHSINGYVFDSLQLSVCLHEVAYWYILSIGAQTDFLSVFFSGYTFKHKMVYEDTLTLFPFSGETVFMSMENPGLWILGCHNSDFRNRGMTALLKVSSCDKNTGDYYEDSYEDISAYLLSKNNAIEPR
chain 2: EITRTTLQSDQEEIDYDDTISVEMKKEDFDIYDEDENQSPRSFQKKTRHYFIAAVERLWDYGMSSSPHVLRNRAQSGSVPQFKKVVFQEFTDGSFTQPLYRGELNEHLGLLGPYIRAEVEDNIMVTFRNQASRPYSFYSSLISYEEDQRQGAEPRKNFVKPNETKTYFWKVQHHMAPTKDEFDCKAWAYFSDVDLEKDVHSGLIGPLLVCHTNTLNPAHGRQVTVQEFALFFTIFDETKSWYFTENMERNCRAPCNIQMEDPTFKENYRFHAINGYIMDTLPGLVMAQDQRIRWYLLSMGSNENIHSIHFSGHVFTVRKKEEYKMALYNLYPGVFETVEMLPSKAGIWRVECLIGEHLHAGMSTLFLVYSNKCQTPLGMASGHIRDFQITASGQYGQWAPKLARLHYSGSINAWSTKEPFSWIKVDLLAPMIIHGIKTQGARQKFSSLYISQFIIMYSLDGKKWQTYRGNSTGTLMVFFGNVDSSGIKHNIFNPPIIARYIRLHPTHYSIRSTLRMELMGCDLNSCSMPLGMESKAISDAQITASSYFTNMFATWSPSKARLHLQGRSNAWRPQVNNPKEWLQVDFQKTMKVTGVTTQGVKSLLTSMYVKEFLISSSQDGHQWTLFFQNGKVKVFQGNQDSFTPVVNSLDPPLLTRYLRIHPQSWVHQIALRMEVLGCEAQDLY
notes: coagulation factor VIII, human, B-domain deleted; also called BDD FVIII; source: bought: FVIII pharmaceutical product, ASD Healthcare, AmerisourceBergen

Key:
Conditions in all cases: both partners purified
[1] = target: T1, Isolated VH subunit of thrombin-cleaved iKM33-v1; assay: pull-down; FVIII (BDD, ~2 µg) incubated with the scFv or its fragments (1- to 5-fold molar excess) in HBS-P/Ca buffer for 1 h at room temperature, captured on VIIISelect (FVIII-affinity) resin, washed, eluted, SDS-PAGE with silver staining
T1 construct: as the VH of m2; the stretch of the linker of m2 that stays on VH after thrombin cleavage; About 13 kDa; source: thrombin cleavage of the purified scFv (Sf9); supernatant after Ni-NTA agarose, buffer exchanged and concentrated

[2] = target: T2, Recombinant blood coagulation factor VIII (human); assay: SPR; each scFv variant covalently immobilised (amine coupling, CM5, 250-350 RU); FVIII injected at 3.125, 12.5, 50 and 200 nM; 10 mM HEPES, 150 mM NaCl, 5 mM CaCl2, 0.005% Polysorbate-20; 25 °C; 1:1 (Langmuir) binding model; Biacore T200
T2 construct: coagulation factor VIII, human, heavy chain with the domain structure A1-A2-B; coagulation factor VIII, human, light chain with the domain structure A3-C1-C2; Written here as one chain entry with two parts would be wrong: see the two pieces as heavy chain and light chain of the heterodimer; also called FVIII; source: bought: FVIII pharmaceutical product, ASD Healthcare, AmerisourceBergen

[3] = target: B1; assay: pull-down; FVIII (BDD, ~2 µg) incubated with the scFv or its fragments (1- to 5-fold molar excess) in HBS-P/Ca buffer for 1 h at room temperature, captured on VIIISelect (FVIII-affinity) resin, washed, eluted, SDS-PAGE with silver staining

**Q.** Does B1 bind [1]?
**A.** binds

B2: scFv iKM33-v1 (thrombin-cleavable variant of iKM33) (scFv, V domains shown)
VH: EVQLVESGGGVVQPGRSLRLSCVDSGLTFSSYGMHWVRQAPGAGLEWVAVISYDGNDKYYADSVKGRFAISRDNAKNTLYLQMNSLTIEDTAVYYCAKDLIESNIAEAFWGQGTLVTVSS
VL: DIQMTQSPSSLSASVGDTVTIACRASRDIRNDLAWYQQKPGKAPKLLIYATSRLQSGVPSRFSGSGSFTDFTLTINSLQPDDSATYYCLQDSDYPLTFGGGTKVDIK
notes: as the VH of m1; linker with a thrombin cleavage site made after the FVIII Arg740 site, 15 or 17 residues long; as the VL of m1; Differs from m1 only in the linker; also called intact scFv; source: Sf9 cells, baculovirus, purified from conditioned media (HisTrap Excel, Superdex 75)
**Q.** Does B2 bind [2]?
**A.** binds

**Q.** Does B2 bind [3]?
**A.** binds

B3: scFv iKM33-v3 (thrombin-cleavable variant of iKM33) (scFv, V domains shown)
VH: EVQLVESGGGVVQPGRSLRLSCVDSGLTFSSYGMHWVRQAPGAGLEWVAVISYDGNDKYYADSVKGRFAISRDNAKNTLYLQMNSLTIEDTAVYYCAKDLIESNIAEAFWGQGTLVTVSS
VL: DIQMTQSPSSLSASVGDTVTIACRASRDIRNDLAWYQQKPGKAPKLLIYATSRLQSGVPSRFSGSGSFTDFTLTINSLQPDDSATYYCLQDSDYPLTFGGGTKVDIK
notes: as the VH of m1; linker with a thrombin cleavage site made after the FVIII Arg372 site; as the VL of m1; Differs from m1 only in the linker; source: Sf9 cells, baculovirus, purified from conditioned media (HisTrap Excel, Superdex 75)
**Q.** Does B3 bind [2]?
**A.** binds

B4: scFv iKM33-v2 (thrombin-cleavable variant of iKM33) (scFv, V domains shown)
VH: EVQLVESGGGVVQPGRSLRLSCVDSGLTFSSYGMHWVRQAPGAGLEWVAVISYDGNDKYYADSVKGRFAISRDNAKNTLYLQMNSLTIEDTAVYYCAKDLIESNIAEAFWGQGTLVTVSS
VL: DIQMTQSPSSLSASVGDTVTIACRASRDIRNDLAWYQQKPGKAPKLLIYATSRLQSGVPSRFSGSGSFTDFTLTINSLQPDDSATYYCLQDSDYPLTFGGGTKVDIK
notes: as the VH of m1; linker with a thrombin cleavage site made after the FVIII Arg740 site, 15 or 17 residues long; as the VL of m1; Differs from m1 only in the linker; also called non-cleaved scFv; source: Sf9 cells, baculovirus, purified from conditioned media (HisTrap Excel, Superdex 75)
**Q.** Does B4 bind [2]?
**A.** binds
